Source: publication PMC4547098 (eLife, 2015)

How the values were obtained:
[1] = molecular target: AVR-PikD with non-cleavable C-terminal 6xHis tag (pOPINE) (Magnaporthe oryzae, UniProt C4B8B8 22-113); assay: SPR; Biacore T200, 25°C, single-cycle kinetics; […]; 50 mM HEPES pH 7.5, 150 mM NaCl, 0.1% Tween 20; settings: both partners purified
[2] = molecular target: AVR-PikE with non-cleavable C-terminal 6xHis tag (pOPINE) (Magnaporthe oryzae, UniProt C4B8B8 22-113); assay: SPR; settings: both partners purified

B1: Pikp-HMA domain (HMA integrated domain of the rice NLR Pikp-1) (domain or fragment)
chain: GLKQKIVIKVAMEGNNCRSKAMALVASTGGVDSVALVGDLRDKIEVVGYGIDPIKLISALRKKVGDAELLQVS
notes: also called Pikp1-HMA; Pikp-1 HMA; not shown: 6xHis+SUMO, N-terminal, cleaved
- Kd [1]: 29 ± 3.5 nM
- Kd [2]: 367 ± 41 nM
